# Reference: patent publication US20240252673A1, “ANTI-TISSUE FACTOR ANTIBODY-DRUG CONJUGATES AND THEIR USE IN THE TREATMENT OF CANCER” (priority 2017, published 2024)
# Legend:
# Format in all cases: in vivo, human
# [1] = test system: subjects with locally advanced and/or metastatic cancer of various types; test: Phase I/II dose-escalation study: safety and tolerability, adverse events (CTCAE v4.03) occurring up to 30 days after treatment
# Protocol: A first-in-human phase I/II dose-escalating study following a 3+3 dose-escalation design was conducted in order to test the safety of tisotumab vedotin in 27 subjects with locally advanced and/or metastatic cancer of various types including cervical cancer (FIG. 2). Tisotumab vedotin was administered by intravenous infusion at doses ranging from 0.3 mg/kg to 2.2 mg/kg on day 1 of a 21-day cycle for four cycles (i.e., each treatment cycle was 3 weeks). Patients with stable disease (SD) or better at the end of four cycles had the option to continue treatment with tisotumab vedotin for eight additional cycles (FIG. 2). Tumor evaluations were performed by CT scans every six weeks. In order to qualify for SD, results of the CT scan scheduled for week six needed to be SD or better. Two CT scans were performed outside the per-protocol defined window.
# (§1) Lyophilized vials containing 40 mg of tisotumab vedotin were stored in a refrigerator at 2° C. to 8° C. Tisotumab vedotin was reconstituted in 4 ml of water leading to a reconstituted solution comprising 10 mg/mL tisotumab vedotin, 30 mM histidine, 88 mM sucrose, and 165 mM D-mannitol. […] The reconstituted tisotumab vedotin was diluted into a 0.9% NaCl 100 mL infusion bag according to the dose calculated for the patient. Intravenous infusion was completed within 24 hours after the tisotumab vedotin vial had been reconstituted. A 0.2 μm in-line filter was used for the intravenous infusion. The entire 100 mL volume from the prepared infusion bag was administered. No dead volume was provided.
# A primary objective of the study was to assess the safety and tolerability in a mixed population of patients with specified solid tumors. Adverse event (AE) severity was graded according to Common Terminology Criteria for Adverse Events (CTCAE) version 4.03. Secondary objectives of the study included determining the pharmacokinetic (PK) profile of tisotumab vedotin and preliminary evaluation of anti-tumor activity as assessed according to Response Evaluation Criteria in Solid Tumors [RECIST] version 1.1. Dose-limiting toxicities (DLTs) were determined during the first cycle and were defined as grade≥3 events possibly related to tisotumab vedotin. […] Tumor biopsies were required at baseline for TF expression which was assessed by immunohistochemistry utilizing tisotumab. TF staining intensity was determined using the H-scoring system.
# Inclusion criteria for eligible subjects included: patients with relapsed, advanced, and/or metastatic cancer who have failed available standard therapy; and measurable disease.
# Exclusion criteria included known past or current coagulation defects; ongoing major bleeding; and presence of CTCAE grade≥2 peripheral neuropathy.
# [2] = test system: relapsed, recurrent and/or metastatic cervical cancer; test: Phase IIa single arm trial: anti-tumor activity per RECIST v1.1; conditions: 2.0 mg/kg q3w
# Protocol: (§2) A Phase IIa single arm, multicenter trial investigated the efficacy, safety and tolerability of 2.0 mg/kg tisotumab vedotin in patients with relapsed, recurrent and/or metastatic cervical cancer. A total of 34 patients (n=34) were enrolled and received at least 1 dose of tisotumab vedotin. Each eligible patient was assigned to receive an intravenous (IV) infusion dose of tisotumab vedotin at a concentration of 2.0 mg/kg on day 1 of a 21-day cycle (i.e., each treatment cycle was 3 weeks (q3w)).
# (§3) A primary objective of the study was to assess safety and tolerability of tisotumab vedotin. Adverse event (AE) severity was graded according to CTCAE version 4.03. A secondary objective was preliminary evaluation of anti-tumor activity durability as assessed according to RECIST version 1.1. Tumor evaluations were performed by CT scans every six weeks.
# [3] = test system: patients with relapsed, recurrent and/or metastatic cervical cancer; test: Phase IIa single arm trial: safety and tolerability (CTCAE v4.03); conditions: 2.0 mg/kg q3w
# Protocol: as §2
# as §1, with “patient to receive 2.0 mg/kg tisotumab vedotin.” for “patient.”
# as §3
substance,measurement,setting,value
tisotumab vedotin,AE leading to discontinuation,[1]; 0.3 mg/kg (n = 3),0 n
same,AE leading to discontinuation,[1]; 0.6 mg/kg (n = 3),0 n
same,AE leading to discontinuation,[1]; 0.9 mg/kg (n = 3),0 n
same,AE with outcome of death,[1]; 0.9 mg/kg (n = 3),0 n
same,Serious AE,[1]; 0.9 mg/kg (n = 3),0 n
same,AE leading to discontinuation,[1]; 1.2 mg/kg (n = 3),0 n
same,AE with outcome of death,[1]; 1.2 mg/kg (n = 3),0 n
same,AE leading to discontinuation,[1]; 1.5 mg/kg (n = 3),0 n
same,AE with outcome of death,[1]; 1.5 mg/kg (n = 3),0 n
same,AE with outcome of death,[1]; 1.8 mg/kg (n = 3),0 n
same,AE leading to discontinuation,[1]; 2.0 mg/kg (n = 3),0 n
same,AE with outcome of death,[1]; 2.0 mg/kg (n = 3),0 n
same,AE with outcome of death,[1]; 2.2 mg/kg (n = 6),0 n
same,"DLTs (diabetes mellitus type 2, mucositis, neutropenic fever, all grade 3)","[1]; 2.2 mg/kg dose cohort, in three patients, first cycle",Three
same,Maximum tolerated dose (MTD),"[1]; IV, day 1 of 21-day cycle",2.0 mg/kg
same,tolerability,"[1]; Patient 2, cervical cancer, 1.2 mg/kg",well tolerated and no severe AEs were reported
same,discontinued due to AE: grade 1 pneumonitis,[1]; all 27 patients,1 n
same,discontinued due to AE: grade 2 peripheral swelling and grade 3 pain in extremity,[1]; all 27 patients,one
same,discontinued due to AE: grade 3 Guillain-Barre syndrome,[1]; all 27 patients,1 n
same,discontinued due to AE: grade 3 abdominal pain,[1]; all 27 patients,2 n
same,discontinued due to AE: grade 3 diabetes mellitus,[1]; all 27 patients,1 n
same,discontinued due to AE: grade 3 fatigue,[1]; all 27 patients,1 n
same,grade 4 events,[1]; all 27 patients,no grade 4 events
same,grade≥3 treatment-related AE: abdominal pain,[1]; all 27 patients,3 n
same,grade≥3 treatment-related AE: anemia,[1]; all 27 patients,4 n
same,grade≥3 treatment-related AE: fatigue,[1]; all 27 patients,4 n
same,grade≥3 treatment-related AE: hyponatraemia,[1]; all 27 patients,3 n
same,patients experienced grade≥3 treatment-related AEs,[1]; all 27 patients,19 patients
same,treatment-related AE: anaemia,[1]; all 27 patients,41%
same,treatment-related AE: epitaxis,[1]; all 27 patients,48%
same,treatment-related AE: fatigue,[1]; all 27 patients,48%
same,changes in coagulation parameters,[1]; all doses,No significant changes
same,patients withdrew from treatment due to AEs,"[1]; all doses, 27 patients",15%
same,patients withdrew from treatment due to death,"[1]; all doses, 27 patients",4%
same,patients withdrew from treatment due to dose-limiting toxicities (DLTs),"[1]; all doses, 27 patients",4%
same,mean prothrombin time,"[1]; by the end of the study (n=17), baseline 11.5 seconds (n=18)",11.7 s
same,mean activated partial thromboplastin time,"[1]; by the end of the study (n=23), baseline 28.2 seconds (n=25)",27.1 s
same,patients withdrew from treatment due to disease progression,[2]; 34 patients,16 n
same,Median DoR for confirmed and unconfirmed responses,[2]; N = 34,^eMedian DoR of 5.4 months for confirmed and unconfirmed responses.
same,Median PFS,[2]; N = 34,6.4 months
same,confirmed PR,[2]; N = 34,8
same,unconfirmed PR,"[2]; N = 34, 1 of which is still ongoing",3
same,Objective response rate (ORR),"[2]; N = 34, 95% Confidence interval 17%-50%",32 % of total patients
same,DCR (CR + PR + SD),"[2]; N = 34, clinical benefit after 12 weeks, 95% Confidence interval 35%-65%",50 % of total patients
same,"efficacy, overall conclusion",[2]; cervical cancer cohort,robust efficacy
same,grade 4 or grade 5 events,[3]; 34 patients,no grade 4 or grade 5 events
same,patients withdrew from treatment due to AE,[3]; 34 patients,5 n
same,patients experienced conjunctivitis at grade≥3,[3]; after mitigation (n=19),5%
same,patients experienced conjunctivitis of any grade,[3]; after mitigation (n=19),32%
same,patients experienced conjunctivitis of any grade,[3]; prior to mitigation (n=15),73%
same,"safety profile, overall conclusion",[3]; cervical cancer cohort,manageable safety profile
